From the supplement of paper PMC9112550, “Optimization of the antimicrobial peptide Bac7 by deep mutational scanning” (BMC Biology, 2022) come the findings set out here.

The data set concerns Escherichia coli TOP10. The experiment in a line: shrunken log2 fold change of peptide-encoding DNA abundance (4.5 h post-induction vs induction); higher = less antimicrobial activity (less host growth inhibition). The following applies: time post-induction: 4.5 h; library: site-saturation at positions 5, 18, 19, 20.
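Note: peptides expressed intracellularly from a pBAD plasmid library in pooled LB shake-flask culture, induced with 0.3% L-arabinose, DNA abundance read by NGS, three biological replicates, DESeq2 with apeglm shrinkage.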

For the sequence RRIRNRPPRLPRPRPRPQTWPRP, the “shrunken log2 fold change” value is -0.183. As to RRIRSRPPRLPRPRPRPFPPPRP, the “shrunken log2 fold change” value is -0.0275. Next, RRIRQRPPRLPRPRPRPISMPRP: 0.0161; RRIRGRPPRLPRPRPRPSQIPRP: -0.111. To RRIRARPPRLPRPRPRPAHFPRP belongs 0.25. To RRIRVRPPRLPRPRPRPIISPRP belongs -0.418; to RRIRWRPPRLPRPRPRPDCFPRP, 1.32.

Regarding RRIRERPPRLPRPRPRPAHAPRP, the “shrunken log2 fold change” value is 0.117. Consider RRIRSRPPRLPRPRPRPLDCPRP, for which the “shrunken log2 fold change” value was -0.212. To RRIRCRPPRLPRPRPRPGRQPRP belongs 0.285; to RRIRWRPPRLPRPRPRPDPTPRP, 0.691; to RRIRCRPPRLPRPRPRPSPWPRP, 0.0328. On to RRIRERPPRLPRPRPRPIGSPRP, for which the “shrunken log2 fold change” value was -0.587. RRIRLRPPRLPRPRPRPGDWPRP: the “shrunken log2 fold change” value was determined as 0.618. Next, RRIRQRPPRLPRPRPRPDYMPRP: -0.453; RRIRGRPPRLPRPRPRPHDSPRP: -0.0179.

As to RRIRCRPPRLPRPRPRPLSYPRP, the “shrunken log2 fold change” value was -1.29. As to RRIRCRPPRLPRPRPRPQVWPRP, the “shrunken log2 fold change” value is -0.0474. Regarding RRIRFRPPRLPRPRPRPVYDPRP, the “shrunken log2 fold change” value is -0.977. To RRIRTRPPRLPRPRPRPPFQPRP belongs 0.0322; to RRIRMRPPRLPRPRPRPEWWPRP, -0.00783; to RRIRTRPPRLPRPRPRPGVAPRP, 0.639. Next, RRIRSRPPRLPRPRPRPASVPRP: 0.377; RRIRLRPPRLPRPRPRPIKHPRP: -0.821. To RRIRARPPRLPRPRPRPCKLPRP belongs -0.693; to RRIRARPPRLPRPRPRPLSLPRP, -0.0486; to RRIRHRPPRLPRPRPRPDPCPRP, -0.186.

On to RRIRCRPPRLPRPRPRPKARPRP, for which the “shrunken log2 fold change” value was 0.315. To RRIRPRPPRLPRPRPRPQFSPRP belongs -0.184. To RRIRMRPPRLPRPRPRPRYWPRP belongs -0.14; to RRIRMRPPRLPRPRPRPYFKPRP, -0.647. To RRIRHRPPRLPRPRPRPKQCPRP belongs -0.224; to RRIRKRPPRLPRPRPRPAKHPRP, 0.0854. For RRIRRRPPRLPRPRPRPGNKPRP, the “shrunken log2 fold change” value was -0.176. Next, RRIRARPPRLPRPRPRPFTEPRP: -0.261; RRIRKRPPRLPRPRPRPCVRPRP: -0.215; RRIRGRPPRLPRPRPRPERMPRP: 0.251. To RRIRRRPPRLPRPRPRPLCWPRP belongs 0.623.

In the case of RRIRHRPPRLPRPRPRPHFNPRP, the “shrunken log2 fold change” value is -0.42. To RRIRMRPPRLPRPRPRPPEHPRP belongs 0.353. Next, RRIRLRPPRLPRPRPRPEDVPRP: -0.0818; RRIRERPPRLPRPRPRPFIHPRP: -1.12; RRIRVRPPRLPRPRPRPKQNPRP: 0.385. To RRIRIRPPRLPRPRPRPIKHPRP belongs -0.571. For RRIRKRPPRLPRPRPRPTMAPRP, the “shrunken log2 fold change” value turned out to be 0.638.

As for RRIRCRPPRLPRPRPRPGKLPRP, the “shrunken log2 fold change” value is -0.111. Next, RRIRFRPPRLPRPRPRPWCIPRP: -0.369; RRIRRRPPRLPRPRPRPMNQPRP: 0.0252. Next, RRIRTRPPRLPRPRPRPQVPPRP: 0.101.

For RRIRERPPRLPRPRPRPWRYPRP, the “shrunken log2 fold change” value was -0.176. In the case of RRIRHRPPRLPRPRPRPHDMPRP, the “shrunken log2 fold change” value is -0.291. Turning to RRIRVRPPRLPRPRPRPITNPRP, the “shrunken log2 fold change” value is -0.219. To RRIRRRPPRLPRPRPRPAVNPRP belongs 0.125; to RRIRMRPPRLPRPRPRPQSEPRP, 0.446.

Turning to RRIRLRPPRLPRPRPRPTVVPRP, the “shrunken log2 fold change” value is -0.0551.

Consider RRIRDRPPRLPRPRPRPTCHPRP, for which the “shrunken log2 fold change” value came to 0.0627. With RRIRNRPPRLPRPRPRPLAPPRP, the “shrunken log2 fold change” value is 0.262.

As to RRIRVRPPRLPRPRPRPQWIPRP, the “shrunken log2 fold change” value was -0.895.

As for RRIRSRPPRLPRPRPRPVVKPRP, the “shrunken log2 fold change” value is -0.14.

For RRIRLRPPRLPRPRPRPGYVPRP, the “shrunken log2 fold change” value was -0.17. To RRIRCRPPRLPRPRPRPGLGPRP belongs 0.512. To RRIRRRPPRLPRPRPRPILAPRP belongs 1.17.

Turning to RRIRQRPPRLPRPRPRPGHHPRP, the “shrunken log2 fold change” value came out at 0.245.

Consider RRIRQRPPRLPRPRPRPLIIPRP, for which the “shrunken log2 fold change” value is -0.781. To RRIRDRPPRLPRPRPRPEHAPRP belongs 0.294; to RRIRWRPPRLPRPRPRPKCTPRP, 1.21. To RRIRYRPPRLPRPRPRPDEHPRP belongs -0.0204; to RRIRTRPPRLPRPRPRPWALPRP, -0.23; to RRIRQRPPRLPRPRPRPYTTPRP, -0.0148. In the case of RRIRIRPPRLPRPRPRPVMSPRP, the “shrunken log2 fold change” value was -0.0169. Next, RRIRDRPPRLPRPRPRPQYWPRP: -0.695; RRIRWRPPRLPRPRPRPCHGPRP: 0.0694; RRIRIRPPRLPRPRPRPQEYPRP: -0.312. Turning to RRIRRRPPRLPRPRPRPRFCPRP, the “shrunken log2 fold change” value worked out at 0.421. Next, RRIRSRPPRLPRPRPRPLHEPRP: 0.339; RRIRCRPPRLPRPRPRPLYQPRP: -0.543; RRIRCRPPRLPRPRPRPEDDPRP: 0.159. Next, RRIRDRPPRLPRPRPRPMIMPRP: 0.387; RRIRKRPPRLPRPRPRPDFEPRP: 0.0238; RRIRHRPPRLPRPRPRPQADPRP: -0.139. Next, RRIRDRPPRLPRPRPRPNCMPRP: 0.111. In the case of RRIRRRPPRLPRPRPRPRIRPRP, the “shrunken log2 fold change” value was 0.179. Take RRIRGRPPRLPRPRPRPDYWPRP: the “shrunken log2 fold change” value was -0.027. To RRIRWRPPRLPRPRPRPICIPRP belongs -0.191; to RRIRIRPPRLPRPRPRPMRYPRP, -0.176; to RRIRGRPPRLPRPRPRPVMTPRP, 1.8. On to RRIRERPPRLPRPRPRPKRKPRP, for which the “shrunken log2 fold change” value is 0.25. Take RRIRYRPPRLPRPRPRPCTVPRP: the “shrunken log2 fold change” value was -0.0835. As to RRIRIRPPRLPRPRPRPWTSPRP, the “shrunken log2 fold change” value is -0.171.

Take RRIRPRPPRLPRPRPRPWYLPRP: the “shrunken log2 fold change” value was -0.591. Next, RRIRKRPPRLPRPRPRPPLSPRP: 0.832. To RRIRWRPPRLPRPRPRPASVPRP belongs 0.00924; to RRIRSRPPRLPRPRPRPRSYPRP, -0.066; to RRIRVRPPRLPRPRPRPLTWPRP, -0.195.

RRIRDRPPRLPRPRPRPHNYPRP: the “shrunken log2 fold change” value is -0.423. Next, RRIRERPPRLPRPRPRPMQWPRP: 0.00938; RRIRTRPPRLPRPRPRPELPPRP: 0.499; RRIRNRPPRLPRPRPRPHPAPRP: 0.116. Next, RRIRMRPPRLPRPRPRPHDCPRP: 0.0419; RRIRVRPPRLPRPRPRPILFPRP: -0.395. For RRIRVRPPRLPRPRPRPHVLPRP, the “shrunken log2 fold change” value was -0.067. Next, RRIRNRPPRLPRPRPRPELLPRP: 0.0274. Next, RRIRNRPPRLPRPRPRPKCMPRP: -0.0394.

Consider RRIRMRPPRLPRPRPRPYLMPRP, for which the “shrunken log2 fold change” value is -0.357. Next, RRIRHRPPRLPRPRPRPAPYPRP: 0.296. To RRIRTRPPRLPRPRPRPTLAPRP belongs 0.54; to RRIRLRPPRLPRPRPRPDHKPRP, -0.257; to RRIRPRPPRLPRPRPRPLMDPRP, -0.145. Next, RRIRLRPPRLPRPRPRPEFVPRP: 0.0203. For the sequence RRIRIRPPRLPRPRPRPWVDPRP, the “shrunken log2 fold change” value amounted to 0.0772. Next, RRIRVRPPRLPRPRPRPGVEPRP: 0.243; RRIRTRPPRLPRPRPRPQESPRP: -0.0142. Next, RRIRERPPRLPRPRPRPCWTPRP: 0.0421. Next, RRIRNRPPRLPRPRPRPPERPRP: 0.537; RRIRMRPPRLPRPRPRPYGKPRP: -0.0311. Take RRIRPRPPRLPRPRPRPMFHPRP: the “shrunken log2 fold change” value is -0.289. Next, RRIRRRPPRLPRPRPRPARVPRP: 0.349; RRIRLRPPRLPRPRPRPDNYPRP: 0.0733; RRIRFRPPRLPRPRPRPGETPRP: 0.138. With RRIRKRPPRLPRPRPRPRDNPRP, the “shrunken log2 fold change” value turned out to be 0.15. As for RRIRERPPRLPRPRPRPRCMPRP, the “shrunken log2 fold change” value is -0.355. Turning to RRIRKRPPRLPRPRPRPGCLPRP, the “shrunken log2 fold change” value was 0.646.

Regarding RRIRFRPPRLPRPRPRPFCSPRP, the “shrunken log2 fold change” value was -0.486. Consider RRIRVRPPRLPRPRPRPDTIPRP, for which the “shrunken log2 fold change” value was -0.00658. Next, RRIRNRPPRLPRPRPRPHEFPRP: -0.13.
